Several values for one entry are separate records, joined by “and”; a condition that tells them apart may be missing. Equal values may be shown once.
Molecular target: Fz-CRD (biotinylated Fz5- and Fz8-CRD)
Assay: SPR, biotinylated Fz5- and Fz8-CRD on the chip, mini-Xwnt8 flowed over at several concentrations

mini-XWnt8 (amino acid residues 248-338) (from UniProt P28026) (ligand)
Kd: 1 µM and 2 µM
